In publication PMC3998375 (Structure (London, England : 1993), 2013):
Positions count from the first letter of the chain named. In names and notes the source's numbering stands. Blank lines part the entries; values can stand above or below the molecule they belong to.

How the values were obtained:
[1] = biological target: murine B7-H3 ectodomain (mB7H3), wild type (mouse) (UniProt Q8VE98); test: SEC
[2] = biological target: the molecule itself; test: SEC

kon [1]: 0.000161 M⁻¹ s⁻¹
stoichiometry N [1]: 2
Molecule: murine B7-H3 ectodomain (mB7H3), wild type (from UniProt Q8VE98 34-247) (domain or fragment)

B1: murine B7-H3 ectodomain (mB7H3) I126T (domain or fragment, mouse, UniProt Q8VE98 34-247, looked up)
chain: SEDPVVALVDTDATLRCSFSPEPGFSLAQLNLIWQLTDTKQLVHSFTEGRDQGSAYSNRTALFPDLLVQGNASLRLQRVRVTDEGSYTCFVSTQDFDSAAVSLQVAAPYSKPSMTLEPNKDLRPGNMVTITCSSYQGYPEAEVFWKDGQGVPLTGNVTTSQMANERGLFDVHSVLRVVLGANGTYSCLVRNPVLQQDAHGSVTITGQPLTFPPE
kon [2]: 4.1e-05 M⁻¹ s⁻¹

B2: murine B7-H3 ectodomain (mB7H3) FG-loop chimera (I126Y/Q127G/D128G/F129A) (domain or fragment, mouse, UniProt Q8VE98 34-247, looked up)
chain: B1 chain with T93Y, Q94G, D95G, F96A
kon [2]: 8.3e-06 M⁻¹ s⁻¹

B3: murine B7-H3 ectodomain (mB7H3) F129A (domain or fragment, mouse, UniProt Q8VE98 34-247, looked up)
chain: B1 chain with T93I, F96A
kon [2]: 0.000164 M⁻¹ s⁻¹
